Test results: publication PMC8729784

Target: T1, α-catenin monomer (recombinant full-length mouse α-catenin) (mouse), P26231
T1 chain: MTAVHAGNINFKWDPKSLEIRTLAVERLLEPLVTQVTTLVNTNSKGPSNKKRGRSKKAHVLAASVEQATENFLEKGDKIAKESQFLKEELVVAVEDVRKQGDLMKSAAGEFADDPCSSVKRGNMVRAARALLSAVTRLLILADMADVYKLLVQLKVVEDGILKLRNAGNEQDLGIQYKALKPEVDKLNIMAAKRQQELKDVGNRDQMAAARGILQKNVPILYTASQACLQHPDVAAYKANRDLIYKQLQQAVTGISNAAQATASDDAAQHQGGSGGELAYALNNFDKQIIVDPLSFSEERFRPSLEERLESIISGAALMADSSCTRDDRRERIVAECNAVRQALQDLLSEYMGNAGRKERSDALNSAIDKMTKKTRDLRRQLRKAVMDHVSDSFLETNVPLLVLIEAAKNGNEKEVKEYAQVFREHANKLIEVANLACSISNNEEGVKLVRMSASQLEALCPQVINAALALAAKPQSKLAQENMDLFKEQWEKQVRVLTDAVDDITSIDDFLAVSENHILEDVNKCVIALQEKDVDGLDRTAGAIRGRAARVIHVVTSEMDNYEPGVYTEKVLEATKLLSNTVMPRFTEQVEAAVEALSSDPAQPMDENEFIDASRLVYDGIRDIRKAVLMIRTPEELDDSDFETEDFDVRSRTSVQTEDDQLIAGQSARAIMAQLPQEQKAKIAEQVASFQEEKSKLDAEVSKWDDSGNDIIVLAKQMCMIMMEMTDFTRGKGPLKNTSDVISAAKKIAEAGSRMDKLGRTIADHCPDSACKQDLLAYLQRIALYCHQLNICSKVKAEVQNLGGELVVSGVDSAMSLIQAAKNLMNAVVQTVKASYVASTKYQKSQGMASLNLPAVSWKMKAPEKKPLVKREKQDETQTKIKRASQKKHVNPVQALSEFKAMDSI
Experiment: SEC; Superdex 200 gel filtration at 4°C in 20 mM Tris-HCl pH 8.0, 150 mM NaCl, 2.5 mM DTT, after His-tag affinity chromatography; dimer and monomers
Conditions: remark: other sources report otherwise

B1: α-catenin monomer (recombinant full-length mouse α-catenin), P26231 1-906 (natural protein)
chain: T1 chain
B1 was tested, and the stoichiometry N was 2.
